Publication PMC10397247

Tests used:
Assay in all cases: two-hybrid library CCNG1;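 further: natural log of median RNA to DNA barcode read ratio; higher means stronger binding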
4H72-bN = biological target: T1, 4H72-bN
T1 chain: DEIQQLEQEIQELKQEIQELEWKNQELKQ

4H575-bA = biological target: T2, 4H575-bA
T2 chain: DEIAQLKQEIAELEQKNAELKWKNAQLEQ

4H3855-bN = biological target: T3, 4H3855-bN
T3 chain: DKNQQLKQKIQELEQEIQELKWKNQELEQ

4H797-bN = biological target: T4, 4H797-bN
T4 chain: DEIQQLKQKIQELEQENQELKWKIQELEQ

4H953-bN = biological target: T5, 4H953-bN
T5 chain: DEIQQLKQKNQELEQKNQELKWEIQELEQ

4H3112-bN = biological target: T6, 4H3112-bN
T6 chain: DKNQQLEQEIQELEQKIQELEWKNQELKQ

4H717-bN = biological target: T7, 4H717-bN
T7 chain: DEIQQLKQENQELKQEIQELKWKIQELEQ

4H3782-bN = biological target: T8, 4H3782-bN
T8 chain: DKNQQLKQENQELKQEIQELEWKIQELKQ

4H3427-bN = biological target: T9, 4H3427-bN
T9 chain: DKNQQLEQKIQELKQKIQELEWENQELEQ

4H370-bN = biological target: T10, 4H370-bN
T10 chain: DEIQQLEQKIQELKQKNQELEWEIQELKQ

4H687-bN = biological target: T11, 4H687-bN
T11 chain: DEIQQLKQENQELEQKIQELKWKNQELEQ

4H2667-bN = biological target: T12, 4H2667-bN
T12 chain: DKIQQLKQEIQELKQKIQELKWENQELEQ

4H3606-bN = biological target: T13, 4H3606-bN
T13 chain: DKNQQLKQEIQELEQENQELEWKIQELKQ

4H462-bN = biological target: T14, 4H462-bN
T14 chain: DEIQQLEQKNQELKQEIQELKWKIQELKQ

4H883-bN = biological target: T15, 4H883-bN
T15 chain: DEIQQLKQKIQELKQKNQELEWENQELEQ

4H3354-bN = biological target: T16, 4H3354-bN
T16 chain: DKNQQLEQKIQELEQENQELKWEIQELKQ

4H607-bN = biological target: T17, 4H607-bN
T17 chain: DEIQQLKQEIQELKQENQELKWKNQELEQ

4H4001-bN = biological target: T18, 4H4001-bN
T18 chain: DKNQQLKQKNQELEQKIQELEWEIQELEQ

4H3185-bN = biological target: T19, 4H3185-bN
T19 chain: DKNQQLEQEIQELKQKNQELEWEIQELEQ

4H568-bN = biological target: T20, 4H568-bN
T20 chain: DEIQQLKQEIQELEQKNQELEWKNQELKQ

4H331-bN = biological target: T21, 4H331-bN
T21 chain: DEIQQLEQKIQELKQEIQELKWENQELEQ

4H3843-bN = biological target: T22, 4H3843-bN
T22 chain: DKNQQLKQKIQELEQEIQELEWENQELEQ

4H754-bN = biological target: T23, 4H754-bN
T23 chain: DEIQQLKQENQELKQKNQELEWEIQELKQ

4H908-bN = biological target: T24, 4H908-bN
T24 chain: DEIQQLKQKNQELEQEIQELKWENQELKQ

4H3189-bN = biological target: T25, 4H3189-bN
T25 chain: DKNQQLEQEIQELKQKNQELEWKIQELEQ

4H454-bN = biological target: T26, 4H454-bN
T26 chain: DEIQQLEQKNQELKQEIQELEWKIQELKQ

4H338-bN = biological target: T27, 4H338-bN
T27 chain: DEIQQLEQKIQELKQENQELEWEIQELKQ

4H918-bN = biological target: T28, 4H918-bN
T28 chain: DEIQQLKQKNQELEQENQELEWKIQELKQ

4H967-bN = biological target: T29, 4H967-bN
T29 chain: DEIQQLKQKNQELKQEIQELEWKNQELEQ

4H2697-bN = biological target: T30, 4H2697-bN
T30 chain: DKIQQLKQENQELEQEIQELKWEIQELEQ

4H2729-bN = biological target: T31, 4H2729-bN
T31 chain: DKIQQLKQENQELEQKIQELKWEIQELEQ

4H953-bH = biological target: T32, 4H953-bH
T32 chain: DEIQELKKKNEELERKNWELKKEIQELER

4H3843-bH = biological target: T33, 4H3843-bH
T33 chain: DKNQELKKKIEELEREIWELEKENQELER

4H918-bH = biological target: T34, 4H918-bH
T34 chain: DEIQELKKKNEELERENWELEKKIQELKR

4H338-bH = biological target: T35, 4H338-bH
T35 chain: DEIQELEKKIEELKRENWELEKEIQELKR

4H3427-bH = biological target: T36, 4H3427-bH
T36 chain: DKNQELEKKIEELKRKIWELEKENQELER

O4-bN = biological target: T37, O4-bN
T37 chain: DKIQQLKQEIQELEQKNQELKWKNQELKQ

4H717-bH = biological target: T38, 4H717-bH
T38 chain: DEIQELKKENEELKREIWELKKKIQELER

4H3189-bH = biological target: T39, 4H3189-bH
T39 chain: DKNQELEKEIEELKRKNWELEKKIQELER

4H454-bH = biological target: T40, 4H454-bH
T40 chain: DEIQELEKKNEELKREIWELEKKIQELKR

4H687-bH = biological target: T41, 4H687-bH
T41 chain: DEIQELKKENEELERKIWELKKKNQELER

4H967-bH = biological target: T42, 4H967-bH
T42 chain: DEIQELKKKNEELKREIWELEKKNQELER

4H2697-bH = biological target: T43, 4H2697-bH
T43 chain: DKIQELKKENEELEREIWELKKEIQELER

4H2729-bH = biological target: T44, 4H2729-bH
T44 chain: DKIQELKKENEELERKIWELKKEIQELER

4H3606-bH = biological target: T45, 4H3606-bH
T45 chain: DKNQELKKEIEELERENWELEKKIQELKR

4H72-bH = biological target: T46, 4H72-bH
T46 chain: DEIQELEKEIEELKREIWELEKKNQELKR

4H3185-bH = biological target: T47, 4H3185-bH
T47 chain: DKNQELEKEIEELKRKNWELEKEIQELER

4H3112-bH = biological target: T48, 4H3112-bH
T48 chain: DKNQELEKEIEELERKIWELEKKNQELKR

4H370-bH = biological target: T49, 4H370-bH
T49 chain: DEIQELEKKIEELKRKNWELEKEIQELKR

4H568-bH = biological target: T50, 4H568-bH
T50 chain: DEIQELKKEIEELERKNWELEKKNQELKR

4H908-bH = biological target: T51, 4H908-bH
T51 chain: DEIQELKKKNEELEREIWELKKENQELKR

4H607-bH = biological target: T52, 4H607-bH
T52 chain: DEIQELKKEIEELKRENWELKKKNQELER

4H3782-bH = biological target: T53, 4H3782-bH
T53 chain: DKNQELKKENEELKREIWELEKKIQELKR

4H462-bH = biological target: T54, 4H462-bH
T54 chain: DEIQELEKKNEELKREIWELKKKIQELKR

4H797-bH = biological target: T55, 4H797-bH
T55 chain: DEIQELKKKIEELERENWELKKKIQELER

4H3354-bH = biological target: T56, 4H3354-bH
T56 chain: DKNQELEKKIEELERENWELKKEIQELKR

4H3855-bH = biological target: T57, 4H3855-bH
T57 chain: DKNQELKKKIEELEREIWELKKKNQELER

4H331-bH = biological target: T58, 4H331-bH
T58 chain: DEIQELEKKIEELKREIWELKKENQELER

4H2667-bH = biological target: T59, 4H2667-bH
T59 chain: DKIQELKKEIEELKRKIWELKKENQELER

4H754-bH = biological target: T60, 4H754-bH
T60 chain: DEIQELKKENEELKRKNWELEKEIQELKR

4H883-bH = biological target: T61, 4H883-bH
T61 chain: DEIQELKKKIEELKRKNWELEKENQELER

4H4001-bH = biological target: T62, 4H4001-bH
T62 chain: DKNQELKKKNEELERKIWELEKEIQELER

4H3817-bN = biological target: T63, 4H3817-bN
T63 chain: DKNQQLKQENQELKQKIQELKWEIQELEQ

DKIQQLKQEIQELKQKIQELKWENQELEQ [4H2667-bN]
interaction score (4H72-bN): 0.513
interaction score (4H575-bA): -1.2
interaction score (4H3855-bN): -0.551
interaction score (4H797-bN): -1.02
interaction score (4H953-bN): -0.794
interaction score (4H3112-bN): 1.72
interaction score (4H717-bN): -0.215
interaction score (4H3782-bN): -0.86
interaction score (4H3427-bN): 1.56
interaction score (4H370-bN): -0.572
interaction score (4H687-bN): -1.55
interaction score (4H2667-bN): 0.858
interaction score (4H3606-bN): 0.163
interaction score (4H462-bN): -1.28
interaction score (4H883-bN): -0.0532
interaction score (4H3354-bN): -1.12
interaction score (4H607-bN): -1.69
interaction score (4H4001-bN): 0.942
interaction score (4H3185-bN): -0.735
interaction score (4H568-bN): -0.122
interaction score (4H331-bN): 2.18
interaction score (4H3843-bN): 1.5
interaction score (4H754-bN): -0.798
interaction score (4H908-bN): -0.467
interaction score (4H3189-bN): -0.514
interaction score (4H454-bN): 0.31
interaction score (4H338-bN): 0.105
interaction score (4H918-bN): -1.12
interaction score (4H967-bN): -0.671
interaction score (4H2697-bN): -0.288
interaction score (4H2729-bN): -0.251

DKIQELKKEIEELKRKIWELKKENQELER [4H2667-bH]
interaction score (4H953-bH): 0.0882
interaction score (4H3843-bH): 1.84
interaction score (4H918-bH): -2.64
interaction score (4H338-bH): 1.42
interaction score (4H3427-bH): 1.38
interaction score (O4-bN): -0.678
interaction score (4H717-bH): -0.859
interaction score (4H3189-bH): -0.454
interaction score (4H454-bH): 0.0385
interaction score (4H687-bH): -0.168
interaction score (4H967-bH): -0.166
interaction score (4H2697-bH): 1.31
interaction score (4H2729-bH): 1.75
interaction score (4H3606-bH): 1.83
interaction score (4H72-bH): 0.612
interaction score (4H3185-bH): 0.789
interaction score (4H3112-bH): -0.422
interaction score (4H370-bH): 0.226
interaction score (4H568-bH): 0.0192
interaction score (4H908-bH): -1.3
interaction score (4H607-bH): 0.145
interaction score (4H3782-bH): -0.0673
interaction score (4H462-bH): 1.01
interaction score (4H797-bH): -0.539
interaction score (4H3354-bH): -0.302
interaction score (4H3843-bN): 1.56
interaction score (4H3855-bH): 0.693
interaction score (4H331-bH): 1.71
interaction score (4H2667-bH): 0.801
interaction score (4H754-bH): -0.933
interaction score (4H883-bH): 0.434
interaction score (4H4001-bH): -2.94

DKIQQLKQENQELEQKIQELKWEIQELEQ [4H2729-bN]
interaction score (4H72-bN): -1.09
interaction score (4H3855-bN): -0.181
interaction score (4H797-bN): -1.01
interaction score (4H953-bN): -0.965
interaction score (4H3112-bN): -0.365
interaction score (4H717-bN): -1.59
interaction score (4H3782-bN): -0.911
interaction score (4H3427-bN): -1.07
interaction score (4H3817-bN): -0.912
interaction score (4H687-bN): -0.901
interaction score (4H883-bN): -2.01
interaction score (4H3354-bN): -0.621
interaction score (4H607-bN): -1.28
interaction score (4H4001-bN): -1.4
interaction score (4H3185-bN): -0.905
interaction score (4H568-bN): -1.47
interaction score (4H331-bN): -1.39
interaction score (4H754-bN): -0.565
interaction score (4H908-bN): -1.64
interaction score (4H454-bN): 1.43
interaction score (4H338-bN): -1.12
interaction score (4H918-bN): -0.584
interaction score (4H967-bN): -0.995
interaction score (4H2729-bN): -1.82

DKIQELKKENEELERKIWELKKEIQELER [4H2729-bH]
interaction score (4H953-bH): -0.638
interaction score (4H918-bH): 0.482
interaction score (4H338-bH): -0.279
interaction score (4H3427-bH): 0.368
interaction score (4H717-bH): -0.127
interaction score (4H454-bH): 1.36
interaction score (4H687-bH): -0.723
interaction score (4H967-bH): 0.548
interaction score (4H2729-bH): 1.2
interaction score (4H72-bH): -1.03
interaction score (4H3185-bH): -3.12
interaction score (4H3112-bH): 0.258
interaction score (4H568-bH): -0.0225
interaction score (4H908-bH): -0.811
interaction score (4H607-bH): -1.66
interaction score (4H3782-bH): 0.82
interaction score (4H797-bH): -0.381
interaction score (4H3354-bH): -0.446
interaction score (4H3855-bH): 0.286
interaction score (4H331-bH): -1.61
interaction score (4H754-bH): 0.0247
interaction score (4H883-bH): -0.885
interaction score (4H4001-bH): -0.467
